This passage reports Kd, dH and stoichiometry N results from paper PMC5111854.

Usually Kd stands for the constant that tells how readily two partners part at equilibrium. High values mean lower affinity, low ones higher affinity. Usually stoichiometry N stands for the number of molecules, sites or subunits per partner or assembly.

Assay [1] has as its target Cas5c (Desulfovibrio vulgaris str. Hildenborough). The experiment in a line: ITC. A general note: In ITC the heat of successive injections is recorded.
In assay [2] the target is Cas7 (Desulfovibrio vulgaris str. Hildenborough). The experiment in a line: ITC.

In assay [1], Cas7 (natural protein) registered a Kd of 3.8 µM, a dH of 5.1 kcal/mol and a stoichiometry N of 0.59.
In assay [1], Cas8c (natural protein) came in with a Kd of 3.9 µM, a dH of 4.8 kcal/mol and a stoichiometry N of 0.57. In assay [2], this substance came in with a Kd of 6 µM and a dH of 5.2 kcal/mol.
